Drawing on PMC6045629, this text covers reduction of IFN-γ production of human E183 CTL after 3 h with T-REx CHO cells expressing the mutant antigen for one substance.

The target in this assay is sc E183-HLA-A2 A245V (HBV | human).

Substance “CD8 coreceptor (from UniProt P01732 22-235)” gave a reduction of IFN-γ production of human E183 CTL after 3 h with T-REx CHO cells expressing the mutant antigen of 25%.
